These are literature values, as cited in PMC9965408.

This series addresses plasmin (Homo sapiens) (UniProt P00747).
Sequence of UniProt P00747 (P00747 581-810): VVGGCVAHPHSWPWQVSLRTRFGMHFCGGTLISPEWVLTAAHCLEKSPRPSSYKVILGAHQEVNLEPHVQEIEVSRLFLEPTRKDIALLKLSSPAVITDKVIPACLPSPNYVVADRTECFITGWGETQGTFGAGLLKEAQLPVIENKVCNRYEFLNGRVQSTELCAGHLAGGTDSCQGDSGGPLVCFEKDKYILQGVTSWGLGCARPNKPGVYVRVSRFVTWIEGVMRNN

As to AaTI (from UniProt Q177W0), the Ki (as a rule, a dissociation constant, usually derived from enzyme kinetics or from competition with a known ligand) is 7 µM.
